As usually defined, the Ki is the equilibrium dissociation constant of an inhibitor or competing ligand from its target. A higher Ki goes with lower affinity.

To fix the notation:
B1: SEQ ID NO: 1749 (peptide)
peptide: Ac-IWIAAALR[R8]IGDAFE[S5]YYA-NH2
modifications: staple 9-16
SMILES: CC[C@H](C)[C@H](NC(C)=O)C(=O)N[C@@H](Cc1c[nH]c2ccccc12)C(=O)N[C@H](C(=O)N[C@@H](C)C(=O)N[C@@H](C)C(=O)N[C@@H](C)C(=O)N[C@@H](CC(C)C)C(=O)N[C@@H](CCCNC(=N)N)C(=O)N[C@]1(C)CCCCCCC=CCCC[C@@](C)(C(=O)N[C@@H](Cc2ccc(O)cc2)C(=O)N[C@@H](Cc2ccc(O)cc2)C(=O)N[C@@H](C)C(N)=O)NC(=O)[C@H](CCC(=O)O)NC(=O)[C@H](Cc2ccccc2)NC(=O)[C@H](C)NC(=O)[C@H](CC(=O)O)NC(=O)CNC(=O)[C@H]([C@@H](C)CC)NC1=O)[C@@H](C)CC
B2: SEQ ID NO: 1751 (peptide)
peptide: Ac-IWIAAALR[R8]IGDAFS[S5]YYA-NH2
modifications: staple 9-16
SMILES: CC[C@H](C)[C@H](NC(C)=O)C(=O)N[C@@H](Cc1c[nH]c2ccccc12)C(=O)N[C@H](C(=O)N[C@@H](C)C(=O)N[C@@H](C)C(=O)N[C@@H](C)C(=O)N[C@@H](CC(C)C)C(=O)N[C@@H](CCCNC(=N)N)C(=O)N[C@]1(C)CCCCCCC=CCCC[C@@](C)(C(=O)N[C@@H](Cc2ccc(O)cc2)C(=O)N[C@@H](Cc2ccc(O)cc2)C(=O)N[C@@H](C)C(N)=O)NC(=O)[C@H](CO)NC(=O)[C@H](Cc2ccccc2)NC(=O)[C@H](C)NC(=O)[C@H](CC(=O)O)NC(=O)CNC(=O)[C@H]([C@@H](C)CC)NC1=O)[C@@H](C)CC
B3: SEQ ID NO: 1752 (peptide)
peptide: Ac-IWIAAALR[R8]IGDAFH[S5]YYA-NH2
modifications: staple 9-16
SMILES: CC[C@H](C)[C@H](NC(C)=O)C(=O)N[C@@H](Cc1c[nH]c2ccccc12)C(=O)N[C@H](C(=O)N[C@@H](C)C(=O)N[C@@H](C)C(=O)N[C@@H](C)C(=O)N[C@@H](CC(C)C)C(=O)N[C@@H](CCCNC(=N)N)C(=O)N[C@]1(C)CCCCCCC=CCCC[C@@](C)(C(=O)N[C@@H](Cc2ccc(O)cc2)C(=O)N[C@@H](Cc2ccc(O)cc2)C(=O)N[C@@H](C)C(N)=O)NC(=O)[C@H](Cc2c[nH]cn2)NC(=O)[C@H](Cc2ccccc2)NC(=O)[C@H](C)NC(=O)[C@H](CC(=O)O)NC(=O)CNC(=O)[C@H]([C@@H](C)CC)NC1=O)[C@@H](C)CC
B4: SEQ ID NO: 1750 (peptide)
peptide: Ac-IWIAAALR[R8]IGDAFQ[S5]YYA-NH2
modifications: staple 9-16
SMILES: CC[C@H](C)[C@H](NC(C)=O)C(=O)N[C@@H](Cc1c[nH]c2ccccc12)C(=O)N[C@H](C(=O)N[C@@H](C)C(=O)N[C@@H](C)C(=O)N[C@@H](C)C(=O)N[C@@H](CC(C)C)C(=O)N[C@@H](CCCNC(=N)N)C(=O)N[C@]1(C)CCCCCCC=CCCC[C@@](C)(C(=O)N[C@@H](Cc2ccc(O)cc2)C(=O)N[C@@H](Cc2ccc(O)cc2)C(=O)N[C@@H](C)C(N)=O)NC(=O)[C@H](CCC(N)=O)NC(=O)[C@H](Cc2ccccc2)NC(=O)[C@H](C)NC(=O)[C@H](CC(=O)O)NC(=O)CNC(=O)[C@H]([C@@H](C)CC)NC1=O)[C@@H](C)CC

Positions of bridges follow the written chain, without caps; N, C: chain ends. Non-standard residues stand in square brackets, D forms with d. R8 = C=CCCCCCC[C@@](C)(N)C(=O)O; S5 = C=CCCC[C@](C)(N)C(=O)O

T2 sequence (Q07817 1-209): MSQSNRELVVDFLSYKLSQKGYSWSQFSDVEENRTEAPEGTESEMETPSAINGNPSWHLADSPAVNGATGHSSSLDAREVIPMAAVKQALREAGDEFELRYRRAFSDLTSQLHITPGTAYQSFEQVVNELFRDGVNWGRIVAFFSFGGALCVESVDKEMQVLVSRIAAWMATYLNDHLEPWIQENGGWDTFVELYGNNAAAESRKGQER

For the first assay, the target named is T1, MCL-1 (UniProt Q07820 172-327, limits assumed).
T1 construct: Target of the Ki columns; also called Myeloid cell leukemia 1
T1 sequence (Q07820 172-327 limits assumed): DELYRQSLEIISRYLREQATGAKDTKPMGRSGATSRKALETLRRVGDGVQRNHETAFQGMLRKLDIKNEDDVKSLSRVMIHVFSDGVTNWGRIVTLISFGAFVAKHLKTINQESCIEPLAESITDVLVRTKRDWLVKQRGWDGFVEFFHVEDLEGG
Kind of assay: Ki; method not stated; unit not printed (nM per Table 6).
With B1, the Ki worked out at 1.8 nM.

In the case of B2, the affinity, expressed as Ki, was 8 nM.

Regarding B3, the affinity corresponds to a Ki of 8 nM.

As for B4, the affinity corresponds to a Ki of 4.9 nM.

Another assay addresses T2, BCL-XL (UniProt Q07817 1-209).
T2 construct: Target of the Ki columns
Described as above.
As to B1, the affinity, expressed as Ki, was 17.9 nM.

On to B2, for which the Ki was determined as 44.1 nM.

In the case of B3, the affinity corresponds to a Ki of 36.3 nM.

Take B4: the Ki came to 36.5 nM.

For the next assay, the target named is T3, BCL-2 (UniProt P10415 1-217, limits assumed).
T3 construct: Target of the Ki columns
T3 sequence (P10415 1-217 limits assumed): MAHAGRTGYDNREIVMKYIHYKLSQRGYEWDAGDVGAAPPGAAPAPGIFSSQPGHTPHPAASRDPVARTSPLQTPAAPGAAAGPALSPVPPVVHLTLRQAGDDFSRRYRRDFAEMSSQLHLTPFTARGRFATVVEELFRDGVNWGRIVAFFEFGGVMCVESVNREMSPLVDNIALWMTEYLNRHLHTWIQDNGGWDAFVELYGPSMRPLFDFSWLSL
The assay is described as above.
In the case of B1, the affinity corresponds to a Ki of 30.7 nM.

For the molecule B2, the Ki was determined as 67.5 nM.

Regarding B3, the affinity, expressed as Ki, was 57.4 nM.

B4: the affinity corresponds to a Ki of 71.6 nM.
